Laboratory results reported in PMC9720396, “Autoreactivity and broad neutralization of antibodies against HIV-1 are governed by distinct mutations: Implications for vaccine design strategies” (Frontiers in Immunology, 2022).

How the values were obtained:
[1] = biological target: T1, host protein UBE3A (Abcam), coupled to Luminex beads (Homo sapiens, UniProt Q05086); experiment: Luminex bead-based binding assay; UBE3A (Abcam) covalently linked to carboxylated beads; Abs serially diluted 1:3 from 2 µg/ml in PBS with 0.05% NaN3, 0.05% Tween 20, 1% BSA and 1% milk; 2 hours at room temperature; detected with PE goat anti-human IgG; settings: both partners purified
T1 construct: UBE3A, host protein; bought from Abcam (printed there as UBE34); also called UBE34; source: bought: Abcam
T1 sequence (Q05086 whole entry): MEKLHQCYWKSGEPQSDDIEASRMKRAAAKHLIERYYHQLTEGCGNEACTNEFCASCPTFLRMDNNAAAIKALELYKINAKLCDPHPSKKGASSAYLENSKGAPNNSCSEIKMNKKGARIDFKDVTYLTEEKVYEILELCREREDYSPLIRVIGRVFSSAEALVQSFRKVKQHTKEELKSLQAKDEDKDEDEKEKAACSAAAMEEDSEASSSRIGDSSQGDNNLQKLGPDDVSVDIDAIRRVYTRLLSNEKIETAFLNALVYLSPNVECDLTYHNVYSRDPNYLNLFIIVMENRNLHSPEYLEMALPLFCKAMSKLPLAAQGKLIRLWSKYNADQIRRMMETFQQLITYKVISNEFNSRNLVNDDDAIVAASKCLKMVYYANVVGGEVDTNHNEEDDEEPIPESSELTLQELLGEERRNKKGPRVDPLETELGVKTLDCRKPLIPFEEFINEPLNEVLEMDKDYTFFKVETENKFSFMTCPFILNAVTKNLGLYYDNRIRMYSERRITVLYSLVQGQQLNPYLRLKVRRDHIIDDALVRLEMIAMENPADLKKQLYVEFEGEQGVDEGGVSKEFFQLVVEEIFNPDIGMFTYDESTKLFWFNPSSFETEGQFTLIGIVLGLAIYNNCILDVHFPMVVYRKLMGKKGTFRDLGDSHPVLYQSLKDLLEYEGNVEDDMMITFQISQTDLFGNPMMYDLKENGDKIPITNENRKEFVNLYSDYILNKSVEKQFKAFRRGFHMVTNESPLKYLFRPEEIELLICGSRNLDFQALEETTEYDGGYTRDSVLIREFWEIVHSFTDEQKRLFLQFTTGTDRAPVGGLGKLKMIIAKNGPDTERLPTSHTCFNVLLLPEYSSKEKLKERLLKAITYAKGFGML

Cen B = biological target: T2, Cen B (Homo sapiens (assumed), UniProt P07199); experiment: ELISA; autoantigen ELISA (legend: Athena autoantigen assay); antigens coated at 20 µg/ml overnight at 4°C; Abs in serial dilutions 45 min at RT; HRP anti-human IgG, TMB, 450 nm; settings: both partners purified
T2 construct: Cen B autoantigen (centromere protein B) of the autoantigen ELISA
T2 sequence (P07199 whole entry): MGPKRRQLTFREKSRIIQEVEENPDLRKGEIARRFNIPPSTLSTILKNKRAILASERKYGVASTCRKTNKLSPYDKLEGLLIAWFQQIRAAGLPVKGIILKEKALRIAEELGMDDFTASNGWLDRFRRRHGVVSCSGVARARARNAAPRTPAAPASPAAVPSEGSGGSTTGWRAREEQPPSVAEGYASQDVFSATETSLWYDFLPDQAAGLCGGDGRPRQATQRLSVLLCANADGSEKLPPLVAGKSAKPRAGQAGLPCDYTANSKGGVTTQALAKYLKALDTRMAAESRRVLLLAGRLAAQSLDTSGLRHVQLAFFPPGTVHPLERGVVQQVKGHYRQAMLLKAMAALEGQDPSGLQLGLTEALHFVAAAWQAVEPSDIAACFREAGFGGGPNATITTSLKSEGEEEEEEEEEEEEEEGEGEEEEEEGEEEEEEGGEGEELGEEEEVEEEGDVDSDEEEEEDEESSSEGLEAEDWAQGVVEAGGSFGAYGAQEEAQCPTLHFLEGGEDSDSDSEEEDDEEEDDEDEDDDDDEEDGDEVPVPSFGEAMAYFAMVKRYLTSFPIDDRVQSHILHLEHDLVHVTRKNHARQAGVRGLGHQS

Binder	fold reduction of binding against parental CH103 [1] [fold]	binding result [1]	binding result (Cen B)
CH103 VL I48M mutant (antibody, V domains shown, as the heavy chain of m10 (CH103); as the light chain of m10 (CH103); recombinant IgG; source: Expi293, transiently transfected, purified (Protein A agarose)) V domain 1: QVQLQESGPGVVKSSETLSLTCTVSGGSMGGTYWSWLRLSPGKGLEWIGYIFHTGETNYSPSLKGRVSISVDTSEDQFSLRLRSVTAADTAVYFCASLPRGQLVNAYFRNWGRGSLVSVTA V domain 2: SYELTQPPSVSVSPGQTATITCSGASTNVCWYQVKPGQSPEVVMFENYKRPSGIPDRFSGSKSGSTATLTIRGTQAIDEADYYCQVWDSFSTFVFGSGTQVTV	~10		
CH103 VH E56H mutant (antibody, V domains shown, as the heavy chain of m10 (CH103); as the light chain of m10 (CH103); recombinant IgG; also called the VH E56H mutant; source: Expi293, transiently transfected, purified (Protein A agarose)) V domain 1: QVQLQESGPGVVKSSETLSLTCTVSGGSMGGTYWSWLRLSPGKGLEWIGYIFHTGHTNYSPSLKGRVSISVDTSEDQFSLRLRSVTAADTAVYFCASLPRGQLVNAYFRNWGRGSLVSVTA V domain 2: SYELTQPPSVSVSPGQTATITCSGASTNVCWYQVKPGQSPEVVIFENYKRPSGIPDRFSGSKSGSTATLTIRGTQAIDEADYYCQVWDSFSTFVFGSGTQVTV		binds	binds
CH103 VL E45D mutant (antibody, V domains shown, as the heavy chain of m10 (CH103); as the light chain of m10 (CH103); recombinant IgG; also called the VL E45D mutant; source: Expi293, transiently transfected, purified (Protein A agarose)) V domain 1: QVQLQESGPGVVKSSETLSLTCTVSGGSMGGTYWSWLRLSPGKGLEWIGYIFHTGETNYSPSLKGRVSISVDTSEDQFSLRLRSVTAADTAVYFCASLPRGQLVNAYFRNWGRGSLVSVTA V domain 2: SYELTQPPSVSVSPGQTATITCSGASTNVCWYQVKPGQSPDVVIFENYKRPSGIPDRFSGSKSGSTATLTIRGTQAIDEADYYCQVWDSFSTFVFGSGTQVTV		binds	
CH103 mutant containing both the E56H and E45D mutations (antibody, V domains shown, as the heavy chain of m10 (CH103); as the light chain of m10 (CH103); recombinant IgG; the double mutant is named only in the results; also called CH103 VH E56H + VL E45D; source: Expi293, transiently transfected, purified (Protein A agarose)) V domain 1: QVQLQESGPGVVKSSETLSLTCTVSGGSMGGTYWSWLRLSPGKGLEWIGYIFHTGHTNYSPSLKGRVSISVDTSEDQFSLRLRSVTAADTAVYFCASLPRGQLVNAYFRNWGRGSLVSVTA V domain 2: SYELTQPPSVSVSPGQTATITCSGASTNVCWYQVKPGQSPDVVIFENYKRPSGIPDRFSGSKSGSTATLTIRGTQAIDEADYYCQVWDSFSTFVFGSGTQVTV		binds	
CH106, mature CD4 binding site bnAb (antibody, V domains shown, as the heavy chain of m10 (CH103) with the three differences below; as the light chain of m10 (CH103) with the differences below and a 3-aa (DKV) insertion; recombinant IgG; source: Expi293, transiently transfected, purified (Protein A agarose)) V domain 1: QVQLQESGPGVVKSSETLSLTCSVSGGSMGGTYWSWLRLSPGKGLEWIGYIFHTGHTNYSPSLKGRVSISVDTSEDQFSLRLRSVTAADTAVYFCASLPRGQLVNAYFRNWGRGILVSVTA V domain 2: SYELTQPPSVSVSPGQTATITCSGDKVASVNVCWYQVKPGQSPDVVMYENYKRPSGIPDRFSGSKSGSTATLTIRGTQATDEAEYYCQVWDSFSTFVFGSGTQVTV		binds	
CH103, mature CD4 binding site bnAb (antibody, V domains shown, recombinant IgG; source: Expi293, transiently transfected, purified (Protein A agarose)) V domain 1: QVQLQESGPGVVKSSETLSLTCTVSGGSMGGTYWSWLRLSPGKGLEWIGYIFHTGETNYSPSLKGRVSISVDTSEDQFSLRLRSVTAADTAVYFCASLPRGQLVNAYFRNWGRGSLVSVTA V domain 2: SYELTQPPSVSVSPGQTATITCSGASTNVCWYQVKPGQSPEVVIFENYKRPSGIPDRFSGSKSGSTATLTIRGTQAIDEADYYCQVWDSFSTFVFGSGTQVTV		binds	
CH103 VH T23S mutant (antibody, V domains shown, as the heavy chain of m10 (CH103); as the light chain of m10 (CH103); recombinant IgG; source: Expi293, transiently transfected, purified (Protein A agarose)) V domain 1: QVQLQESGPGVVKSSETLSLTCSVSGGSMGGTYWSWLRLSPGKGLEWIGYIFHTGETNYSPSLKGRVSISVDTSEDQFSLRLRSVTAADTAVYFCASLPRGQLVNAYFRNWGRGSLVSVTA V domain 2: SYELTQPPSVSVSPGQTATITCSGASTNVCWYQVKPGQSPEVVIFENYKRPSGIPDRFSGSKSGSTATLTIRGTQAIDEADYYCQVWDSFSTFVFGSGTQVTV		binds	
IA2, inferred late intermediate of the CH103-106 bnAb lineage (antibody, V domains shown, same light chain as IA1; recombinant IgG; source: Expi293, transiently transfected, purified (Protein A agarose)) V domain 1: QVQLQESGPGVVKSSETLSLTCTVSGGSMGGTYWSWLRLSPGKGLEWIGYIFHTGHTNYNPSLEGRVSISVDTSEDQFSLRLRSVTAADTAVYFCASLPRGQLVNAYFRNWGRGTLVSVTA V domain 2: SYELTQPPSVSVSPGQTATITCSGDKVASKNVCWYQVKPGQSPEVVMYENYKRPSGIPDRFSGSKSGSTATLTIRGTQATDEADYYCQVWDSFSTFVFGSGTQVTV		no binding (tested: 2 µg/ml)	
